# Test results: IntAct's records for PubMed 19172740
# B1: EKC/KEOPS complex subunit BUD32 (Saccharomyces cerevisiae), P53323 (parent)
# chain: MTQEFIDKVSSYLTPDVDIAPISQGAEAIVFTTTTHPYLPRAKDSHQKYIIKYRPPKRYRHPQIDQALTKHRTLNESRLLAKLYLIPGLCVPQLIACDPYNGFIWLEFLGEDLPGGHGFSNLKNFLWMHDQDPYSDLVATTLRKVGRQIGLLHWNDYCHGDLTSSNIVLVRDGARWTPHLIDFGLGSVSNLVEDKGVDLYVLERAILSTHSKHAEKYNAWIMEGFEEVYREQGAKGAKKLKEVTKRFEEVRLRGRKRSMLG
# partner: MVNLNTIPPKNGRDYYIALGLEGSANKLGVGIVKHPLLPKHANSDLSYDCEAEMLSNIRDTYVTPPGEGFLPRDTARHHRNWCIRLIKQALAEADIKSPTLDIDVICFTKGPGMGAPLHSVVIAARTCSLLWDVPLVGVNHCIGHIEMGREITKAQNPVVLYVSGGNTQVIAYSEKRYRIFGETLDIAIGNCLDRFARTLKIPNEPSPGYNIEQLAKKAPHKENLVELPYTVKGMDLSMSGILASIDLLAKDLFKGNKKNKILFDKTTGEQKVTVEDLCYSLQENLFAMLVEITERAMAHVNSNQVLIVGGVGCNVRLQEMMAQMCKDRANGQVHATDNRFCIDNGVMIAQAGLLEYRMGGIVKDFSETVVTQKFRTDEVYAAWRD
# B2: EKC/KEOPS complex subunit BUD32 (Saccharomyces cerevisiae), P53323 (parent)
# chain: B1 chain
# partner: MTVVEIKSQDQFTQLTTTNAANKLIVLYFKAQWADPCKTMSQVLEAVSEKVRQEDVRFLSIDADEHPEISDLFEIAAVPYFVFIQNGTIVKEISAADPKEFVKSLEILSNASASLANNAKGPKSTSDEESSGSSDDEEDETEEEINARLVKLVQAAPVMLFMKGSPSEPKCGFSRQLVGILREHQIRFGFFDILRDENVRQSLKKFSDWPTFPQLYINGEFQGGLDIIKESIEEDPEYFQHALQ
# B3: tRNA N6-adenosine threonylcarbamoyltransferase (Saccharomyces cerevisiae), P36132 (parent)
# chain: B1 partner
# Variants of: B1
# Details: with kae1_yeast KAE1, P36132
row,effect of a mutation on the interaction,Variant
1,disrupting interaction,Y59E

# Variants of: B1
# Details: with kae1_yeast KAE1, P36132
# Remark: another data set of the same source
row,effect of a mutation on the interaction,Variant
1,disrupting interaction,R60E

# Variants of: B1
# Details: with kae1_yeast KAE1, P36132
# Remark: another data set of the same source
row,effect of a mutation on the interaction,Variant
1,decreasing interaction,R72E

# Variants of: B1
# Details: with kae1_yeast KAE1, P36132
# Remark: another data set of the same source
row,effect of a mutation on the interaction,Variant
1,disrupting interaction,K57E

# Variants of: B2
# Details: with glrx4_yeast GRX4, P32642
row,effect of a mutation on the interaction,Variant
1,disrupting interaction,D161A

# Variants of: B3
# Details: with bud32_yeast BUD32, P53323
row,effect of a mutation on the interaction,Variant
1,disrupting interaction,E292R
2,disrupting interaction,E295R

# Variants of: B3
# Details: with bud32_yeast BUD32, P53323
# Remark: another data set of the same source
row,effect of a mutation on the interaction,Variant
1,decreasing interaction,D236R
